What was measured:
[1] = target: mitochondrial transcription factor B2 (TFB2M) protein (human) (UniProt Q9H5Q4); test: in situ proximity ligation assay (anti-TFAM sc-376672 and anti-TFB2M 13676), fixed PBMCs from septic patients (n=10), mean
[2] = target: mitochondrial transcription factor B2 (TFB2M) protein (human) (UniProt Q9H5Q4); test: in situ proximity ligation assay (anti-TFAM sc-376672 and anti-TFB2M 13676), fixed PBMCs from healthy controls (n=20), mean

UniProt Q9H5Q4, sequence (Q9H5Q4 44-396): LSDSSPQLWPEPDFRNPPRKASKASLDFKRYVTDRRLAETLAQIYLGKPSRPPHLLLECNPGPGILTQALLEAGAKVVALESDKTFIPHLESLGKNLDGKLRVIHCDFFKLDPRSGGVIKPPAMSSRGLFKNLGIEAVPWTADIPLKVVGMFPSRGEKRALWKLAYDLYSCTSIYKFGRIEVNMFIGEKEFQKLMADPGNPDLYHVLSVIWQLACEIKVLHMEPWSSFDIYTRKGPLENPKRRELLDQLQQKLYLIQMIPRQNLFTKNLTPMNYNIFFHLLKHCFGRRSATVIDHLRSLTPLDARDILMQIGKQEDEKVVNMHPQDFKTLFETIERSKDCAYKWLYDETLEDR

mature mitochondrial transcription factor A (TFAM) protein (from UniProt Q00059 43-246)
PLA signals per cell (signals per cell) [1]: 1.2
PLA signals per cell (signals per cell) [2]: 4.5

From patent US20250271449A1
